Experimental data from IntAct's records for PubMed 26948053.

B1: N-terminal EF-hand calcium-binding protein 3 (Homo sapiens), Q96P71-2 (parent)
chain: MACAGLLTVCLLRPPAPQPQPQTPRHPQLAPDPGPAGHTLFQDVFRRADKNDDGKLSFEEFQNYFADGVLSLGELQELFSGIDGHLTDNLETEKLCDYFSEHLGVYRPVLAALESLNRAVLAAMDATKLEYERASKVDQFVTRFLLRETVSQLQALQSSLEGASDTLEAQAHGWRSDAESVEAQSRLCGSRRAGRRALRSVSRSSTWSPGSSDTGRSSEAEMQWRLQVNRLQELIDQLECKAPRLEPLREEDLAKGPDLHILMAQRQVQVAEEGLQDFHRALRCYVDFTGAQSHCLHVSAQKMLDGASFTLYEFWQDEASWRRHQQSPGSKAFQRILIDHLRAPDTLTTVFFPASWWIMNNN
partner: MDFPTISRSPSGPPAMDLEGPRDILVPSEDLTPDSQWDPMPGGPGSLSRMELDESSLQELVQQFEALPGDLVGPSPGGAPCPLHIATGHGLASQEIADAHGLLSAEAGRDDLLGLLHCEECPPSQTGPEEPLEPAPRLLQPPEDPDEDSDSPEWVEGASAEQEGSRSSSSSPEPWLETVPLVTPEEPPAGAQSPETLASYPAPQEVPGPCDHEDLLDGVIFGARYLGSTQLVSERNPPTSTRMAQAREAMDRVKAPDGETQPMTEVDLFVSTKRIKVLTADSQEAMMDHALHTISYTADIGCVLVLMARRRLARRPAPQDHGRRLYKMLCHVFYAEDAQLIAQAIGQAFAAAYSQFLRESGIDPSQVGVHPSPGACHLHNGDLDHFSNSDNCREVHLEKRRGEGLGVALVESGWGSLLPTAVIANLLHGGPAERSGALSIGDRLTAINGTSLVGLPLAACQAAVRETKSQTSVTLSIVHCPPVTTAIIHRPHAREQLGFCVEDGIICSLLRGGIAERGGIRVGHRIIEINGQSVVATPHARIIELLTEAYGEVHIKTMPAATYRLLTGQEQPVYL

Variants of: B1
Details: with apba3_human APBA3, O96018

Row | Variant | effect of a mutation on the interaction
1 | MACAGLLTVCLLRPPAPQPQPQTPRHPQLAPDPGPAGHTLFQDVFRRADKNDDGKLSFEEFQNYFADGVLSLGELQELFSGIDGHLTDNLETEKLCDYFSEHLGVYRPVLAALESLNRAVLAAMDATKLEYERASKVDQFVTRFLLRETVSQLQALQSSLEGASDTLEAQAHGWRSDAESVEAQSRLCGSRRAGRRALRSVSRSSTWSPGSSDTGRSSEAEMQWRLQVNRLQELIDQLECKAPRLEPLREEDLAKGPDLHILMAQRQVQVAEEGLQDFHRALRCYVDFTGAQSHCLHVSAQKMLDGASFTLYEFWQDEASWRRAQQSPGSKAFQRILIDHLRAPDTLTTVFFPASWWIMNNN [H324A] | with no effect
